Results reported in doi:10.1101/2025.04.08.647683.

Legend:
[1] = target: T1, QuiR2;QuiR (Listeria monocytogenes EGD-e;Listeria monocytogenes EGD-e?) (UniProt Q8Y543+Q8Y9N7); assay: EMSA
T1 sequence 1: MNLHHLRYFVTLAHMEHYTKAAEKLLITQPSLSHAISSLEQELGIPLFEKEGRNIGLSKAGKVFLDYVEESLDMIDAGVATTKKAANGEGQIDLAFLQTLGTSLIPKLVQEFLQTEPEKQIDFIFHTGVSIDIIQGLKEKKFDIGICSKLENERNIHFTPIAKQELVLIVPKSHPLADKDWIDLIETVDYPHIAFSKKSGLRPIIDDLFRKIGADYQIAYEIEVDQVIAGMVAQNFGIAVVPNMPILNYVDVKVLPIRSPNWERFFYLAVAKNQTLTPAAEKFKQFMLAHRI
T1 sequence 2: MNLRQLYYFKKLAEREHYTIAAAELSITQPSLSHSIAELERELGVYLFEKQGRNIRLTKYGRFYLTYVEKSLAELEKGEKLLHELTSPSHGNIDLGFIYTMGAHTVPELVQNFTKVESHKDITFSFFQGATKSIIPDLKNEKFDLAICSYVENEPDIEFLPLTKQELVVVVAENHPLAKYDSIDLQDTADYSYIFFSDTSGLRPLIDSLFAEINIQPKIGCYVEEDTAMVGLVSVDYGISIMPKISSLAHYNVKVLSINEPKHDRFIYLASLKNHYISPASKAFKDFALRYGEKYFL

[2] = target: T2, QuiR2 (Listeria monocytogenes EGD-e) (UniProt Q8Y543); assay: EMSA
T2 sequence: T1 sequence 1

CGCAAGTTCATCGGTTAACCTCCTCGGAATGCCTTGATAACTCTATTGTAAGCGATTGTATAGAAAAAATCTATGGATAAATCGAAAAATATACATTAGATTAATAATTATTCCTGACTTATAATGAAAGAGAAATAAGATTGTGCATTATTGAACGTGAATAATGTAACAAATCATTTGCTGAGATTATAGTCGCAGGAGGCTTATTATGACAGATTATCCGAG (double strand) [qui1 intergenic region probe (225 nt)]
binding [1]: binds
binding [2]: binds
